{"source": "patent US20130203078A1", "experiment_in_all_cases": "cell-based or functional assay", "key": {"[1]": {"target": "mutated human procaspase-3 (mut-huCasp3), amino acids 172 to 179 changed from IETDSGVD to IEPDVLME (human) (UniProt P42574)"}, "[2]": {"target": "T1, human native unmodified procaspase-3 (huCasp3) (human) (UniProt P42574)", "T1 sequence (looked up)": "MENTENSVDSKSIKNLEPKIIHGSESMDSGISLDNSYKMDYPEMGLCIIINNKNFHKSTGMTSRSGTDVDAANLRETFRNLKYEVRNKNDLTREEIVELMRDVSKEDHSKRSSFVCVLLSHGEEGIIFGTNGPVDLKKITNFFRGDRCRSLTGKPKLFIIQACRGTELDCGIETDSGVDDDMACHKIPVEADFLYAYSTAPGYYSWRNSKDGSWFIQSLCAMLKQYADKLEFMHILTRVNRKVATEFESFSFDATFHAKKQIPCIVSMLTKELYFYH"}, "[3]": {"target": "Human Interleukin 8 Receptor (hIL8RA), on RBL-2H3 cells with human granzyme A (Sensor A) (human) (UniProt P25024)", "sequence (P25024 other isoform, or with tags, fused parts or gaps, form in doubt)": "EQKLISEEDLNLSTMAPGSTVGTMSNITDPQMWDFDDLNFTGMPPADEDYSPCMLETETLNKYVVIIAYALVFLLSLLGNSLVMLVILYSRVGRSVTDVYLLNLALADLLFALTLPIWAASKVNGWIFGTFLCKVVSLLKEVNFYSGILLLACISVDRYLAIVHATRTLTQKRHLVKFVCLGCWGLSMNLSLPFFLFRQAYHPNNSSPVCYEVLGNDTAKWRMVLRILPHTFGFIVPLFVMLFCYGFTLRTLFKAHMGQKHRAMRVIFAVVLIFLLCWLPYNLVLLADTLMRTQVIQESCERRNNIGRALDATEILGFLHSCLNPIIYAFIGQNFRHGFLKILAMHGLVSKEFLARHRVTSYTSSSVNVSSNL"}, "[4]": {"target": "Human Somatostain Receptor 2 (SSTR2), c-myc tagged with viral glycosilation sequence, on RBL-2H3 cells (human) (UniProt P30874)", "sequence (P30874 other isoform, or with tags, fused parts or gaps)": "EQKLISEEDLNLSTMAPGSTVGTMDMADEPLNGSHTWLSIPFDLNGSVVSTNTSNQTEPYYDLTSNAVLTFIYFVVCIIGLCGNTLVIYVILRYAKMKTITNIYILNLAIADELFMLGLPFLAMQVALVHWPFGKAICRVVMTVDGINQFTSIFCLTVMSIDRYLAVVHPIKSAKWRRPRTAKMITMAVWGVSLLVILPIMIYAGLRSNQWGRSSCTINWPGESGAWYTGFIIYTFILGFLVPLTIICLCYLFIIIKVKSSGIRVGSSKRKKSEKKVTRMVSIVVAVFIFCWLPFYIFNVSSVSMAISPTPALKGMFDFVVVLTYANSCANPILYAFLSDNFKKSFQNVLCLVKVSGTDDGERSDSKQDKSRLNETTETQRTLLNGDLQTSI"}, "[5]": {"target": "TNP-BSA conjugate (trinitrophenyl hapten conjugated to bovine serum albumin) (bovine) (UniProt P02769)"}, "[6]": {"target": "Human Bradykinin Receptor B1 (BDKRB1), c-myc tagged with viral glycosilation sequence, on RBL-2H3 cells (human) (UniProt P46663)", "sequence (P46663 other isoform, or with tags, fused parts or gaps)": "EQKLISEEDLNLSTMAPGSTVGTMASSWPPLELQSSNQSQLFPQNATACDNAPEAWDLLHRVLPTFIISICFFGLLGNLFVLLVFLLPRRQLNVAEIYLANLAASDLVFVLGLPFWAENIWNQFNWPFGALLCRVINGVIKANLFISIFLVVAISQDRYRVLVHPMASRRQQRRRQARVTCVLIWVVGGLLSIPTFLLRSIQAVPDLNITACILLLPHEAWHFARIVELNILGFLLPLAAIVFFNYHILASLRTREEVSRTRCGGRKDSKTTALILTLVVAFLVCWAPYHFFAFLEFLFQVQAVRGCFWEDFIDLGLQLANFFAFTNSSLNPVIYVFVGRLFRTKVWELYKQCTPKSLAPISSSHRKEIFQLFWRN"}}, "data": [{"substance": "human granzyme B secreted by stably transfected RBL-2H3 cells (from UniProt P10144 21-247) (enzyme)", "values": [{"measurement": "Signal to Background (S/B), caspase-3 treated with granzyme B against caspase-3 only", "setting": "[1]", "result": 77}, {"measurement": "signal to background, supernatant equivalent to 5.000 cells, 384 well plate", "setting": "[1]", "result": "> 20"}, {"measurement": "Signal to Background (S/B), caspase-3 treated with granzyme B against caspase-3 only", "setting": "[2]", "result": 2.8}]}, {"substance": "Human IL8 (from UniProt P10145 28-99) (ligand)", "values": [{"measurement": "Signal to background at 30 min (released granzyme A activity; condition 2: Sensor A alone, IL8 10 uM)", "setting": "[3]", "result": 16}, {"measurement": "Signal to background at 30 min (released granzyme A activity; condition 5: Sensor A mixed with Sensor B, IL8 10 uM and carbachol 10 uM)", "setting": "[3]", "result": 12.5}]}, {"substance": "seglitide (peptide)", "values": [{"measurement": "Absorbance at maximal dilution of ELISA tested (human granzyme B sandwich ELISA of supernatant, dilution 2250, after subtraction of 0.2 blank)", "setting": "[4]", "result": 2.4, "unit": "absorbance"}, {"measurement": "Sensitivity (minimal amount of cells needed)", "setting": "[4]", "result": "< 150", "unit": "cells"}]}, {"substance": "mouse IgE monoclonal antibody against trinitrophenyl hapten from IgELb4 hybridoma (ATCC TIB-141)", "values": [{"measurement": "Fluorescence after 30 minutes at 37 C (released granzyme B, FRET substrate), TNP-BSA 1 pg/mL", "setting": "[5]", "result": 35900, "unit": "fluorescence"}, {"measurement": "Fluorescence after 30 minutes at 37 C (released granzyme B, FRET substrate), TNP-BSA 1 ng/mL", "setting": "[5]", "result": 34600, "unit": "fluorescence"}, {"measurement": "Fluorescence after 30 minutes at 37 C (released granzyme B, FRET substrate), TNP-BSA 1 ug/mL", "setting": "[5]", "result": 30900, "unit": "fluorescence"}, {"measurement": "Fluorescence after 30 minutes at 37 C (released granzyme B, FRET substrate), TNP-BSA 1 fg/mL", "setting": "[5]", "result": 29800, "unit": "fluorescence"}, {"measurement": "limit of detection for TNP-BSA", "setting": "[5]", "result": 0.1, "unit": "ag/mL"}]}, {"substance": "kallinin (from UniProt P01042 380-389) (peptide)", "values": [{"measurement": "Absorbance at maximal dilution of ELISA tested (human granzyme B sandwich ELISA of supernatant, dilution 2250, after subtraction of 0.2 blank)", "setting": "[6]", "result": 0.8, "unit": "absorbance"}, {"measurement": "Sensitivity (minimal amount of cells needed)", "setting": "[6]", "result": "< 150", "unit": "cells"}, {"measurement": "exocytosis of granzyme B, percent of maximal at 5 minutes", "setting": "[6]", "result": "> 90", "unit": "%"}, {"measurement": "signal to background (S/B) of released granzyme B activity, medium taken at 5 to 15 minutes", "setting": "[6]", "result": "20 to 22"}, {"measurement": "signal to background (S/B) of released granzyme B activity, medium taken at 30 minutes", "setting": "[6]", "result": "15 to 17"}, {"measurement": "signal to background (S/B) of released granzyme B activity, medium taken at 60 minutes", "setting": "[6]", "result": "8 to 10"}]}]}
